Assay results as given in PMC8896507.

Legend:
[1] = biological target: DNA-PK assembly (KU-DNA-DNA-PKcs) (human (endogenous in HeLa)) (UniProt P78527); assay: SEC-MALS + other: SAXS
[2] = biological target: KU (KU70/KU80 heterodimer) (human (endogenous in HeLa)) (UniProt P12956); assay: SEC-MALS + other: SAXS

weight of the dimer in the two-state SAXS fit [1] [%]	stoichiometry N [2]	Substance
24		DNA-PK assembly (KU-DNA-DNA-PKcs) (from UniProt P78527 1-4128; P12956 1-609; P13010 1-732) (complex)
	2	KU (KU70/KU80 heterodimer) (from UniProt P12956 1-609; P13010 1-732) (complex)
